Experiments:
PKC = assay: Effect of BVR and peptides on PKC activity (MBP substrate, kinetic analysis); assay type: biochemical; details: for Vmax of the PKC reaction with respect to ATP / Vmax of the PKC reaction with respect to MBP: in the presence of 50 μM BVR or peptide; for Km for the substrate (MBP) of the PKC reaction: in the presence of 50 μM peptide; for nature of kinetics with respect to substrate concentration: MBP varied
Description: FIGS. 11A-C are graphs depicting the role of BVR in increasing protein kinase C activity. FIG. 11A depicts the dose-dependence of PKC activity in the presence of BVR or PKC inhibitor peptide (“PKCI”) in an assay system containing 0.5 μg/ml PKC, 50 μM unlabeled ATP, 5 μCi[^32γP]-ATP and 1 mg/ml MBP and carried out as described infra. FIGS. 11B-C are the kinetic analyses of PKC activity carried out with respect to MBP (FIG. 11B) and with respect to ATP (FIG. 11C) in the presence or absence of 50 μM BVR.
FIGS. 12A-C are graphs illustrating the effect of various rBVR fragments on PKC activity. Protein kinase C was incubated at 30° C. with buffer or with the indicated peptides (50 μM) for 15 min prior to addition to a kinase assay using MBP as substrate. FIG. 12A depicts the relative activity for each sample normalizing to that of the PKC and buffer control value. FIGS. 12B-C are the kinetic analyses of PKC with respect to substrate MBP (FIG. 12B) and ATP (FIG. 12C) in the presence or absence of BVR peptide fragments (50 μM). BVR1 peptide corresponds to SEQ. ID. No. 34 and BVR2 peptide corresponds to SEQ. ID. No. 19.
Incubation time was 8 min at 30° C.

[1] = molecular target: protein kinase C (a mixture containing equal amounts of isozymes α, β and γ) (Promega); assay: cell-based or functional assay
[2] = Biliverdin reductase catalytic activity of recombinant wild type and mutant hBVR (Example 2, FIG. 3); assay type: biochemical, human; details: pH/cofactor not stated
Description: FIGS. 3A-C are graphs depicting the effects of mutation of Gly^17, Ser^149, and Lys^296 on BVR catalytic activity. Purified preparations of recombinant wild type and mutant BVR with substitution of Gly^17 (FIG. 3A), Ser^149 (FIG. 3B), or Lys^296 (FIG. 3C) with Ala were assessed for BVR activity at pH 6.5 using NADH as cofactor and at pH 8.7 with NADPH as cofactor. Values presented are in percent wild type activity for each pH. The specific activity of the wild type preparation was 1744 nmol bilirubin produced min^−1 mg^−1 at pH 6.5 and 1147 nmol bilirubin produced min^−1 mg^−1 at pH 8.7. Values presented are representative of 2-4 determinations.
GST-BVR fusion proteins were prepared as described in Example 1. Human kidney biliverdin reductase was purified to homogeneity as described by Maines et al., Arch. Biochem. Biophys. 300:320-326 (1993), which is hereby incorporated by reference. The purified reductase preparations were judged to be homogenous by SDS-PAGE. Protein concentration was determined by the method of Bradford, Anal. Biochem. 72:248-254 (1976), which is hereby incorporated by reference.
Activity was determined as previously described by Huang et al., J. Biol. Chem. 264:7844-7849 (1989), which is hereby incorporated by reference, using NADPH as the cofactor at pH 8.7 in 0.1 M […] or NADH at pH 6.5 in […]. The rate of activity was measured as the increase in 450 nm absorbance at 25° C. Specific activity is expressed in units/mg protein, where 1 unit catalyzes the formation of 1 nmol bilirubin/min.

[3] = Biliverdin reductase activity of E. coli expressed hBVR wild type and mutants (Example 1); assay type: biochemical, human; details: for Activity (nmol bilirubin/min/mg) pH 6.7 + NADH: pH 6.7, NADH cofactor; for Activity (nmol bilirubin/min/mg) pH 6.7 + NADH / Activity (nmol bilirubin/min/mg) pH 8.7 + NADPH: 25°; for Activity (nmol bilirubin/min/mg) pH 8.7 + NADPH: pH 8.7, NADPH cofactor; for Activity % pH 6.7 + NADH / Activity % pH 8.7 + NADPH: Cys→Ala mutations; for Activity % pH 6.7 + NADH: wild type = 100, pH 6.7, NADH; for Activity % pH 8.7 + NADPH: wild type = 100, pH 8.7, NADPH
Description: SalI linkers are underlined in each primer. The products were digested with SalI and cloned into the vector pGEX 4T-2. Orientation was determined by restriction analysis and confirmed by sequencing. The ligation places the BVR coding region in frame with the GST protein of the vector. GST-BVR fusion proteins were purified from bacterial clones containing the plasmid, and grown overnight using a glutathione-sepharose 4B column (Pharmacia). The reductase portion of the fusion protein was released by thrombin protease treatment.
Activity was determined as previously described (Kutty et al., J. Biol. Chem. 256:3956-3962 (1981); Huang et al., J. Biol. Chem. 264:7844-7849 (1989), which are hereby incorporated by reference). Activity was determined in a 1 ml assay volume that contained 0.1 M Tris/HCl, pH 8.7 NADPH (100 μM), and biliverdin (5 μM). Reductase activity was also measured using NADH (1 mM) as the cofactor; in this case 0.1 M potassium phosphate pH 6.75, was substituted for Tris/HCl. SDS/PAGE was performed by the method of Laemmli, Nature 227:680-685 (1970), which is hereby incorporated by reference. Western blot analysis was performed using anti-serum to human kidney biliverdin reductase as previously described (Maines et al., Arch. Biochem. Biophys. 300:320-326 (1993), which is hereby incorporated by reference). The relative amounts of immunoreactive protein were determined by scanning the blot using a laser densitometer and comparing the area under the peak for each mutant with the wild type. The rate of activity was measured as the increase in 450 nm absorbance at 25° C. Specific activity is expressed as nmol bilirubin/min/ mg protein.

QKLCHQKK [peptide 2, ID; No. 19]
Vmax of the PKC reaction with respect to ATP (PKC): 3.12 pmol/min | Vmax of the PKC reaction with respect to MBP (PKC): 1.82 pmol/min | Km for the substrate (MBP) of the PKC reaction (PKC): 0.12 mg/mL | inhibition of PKC activity (PKC; peptide 50 μM, MBP substrate): more than 75% | nature of kinetics with respect to substrate concentration (PKC; peptide 50 μM): uncompetitive

RKRCLRRL [PKCI peptide, ID; No. 29, reference compound]
dose dependence of PKC activity (^32P into MBP) (PKC; PKC preincubated 15 min at 30° C., MBP substrate): dose-dependent inhibition of activity | inhibition of PKC activity (PKC; peptide 50 μM, MBP substrate): 90%

KKRIMHC [peptide 1, ID; No. 18]
Vmax of the PKC reaction with respect to ATP (PKC): 4.2 pmol/min | Vmax of the PKC reaction with respect to MBP (PKC): 2.92 pmol/min | Km for the substrate (MBP) of the PKC reaction (PKC): 0.39 mg/mL | effect on PKC activity (PKC; peptide 50 μM, MBP substrate): stimulated PKC activity | nature of kinetics with respect to substrate concentration (PKC; peptide 50 μM): mixed kinetics

KKRIMHC [BVR peptide K274KRIMHC280 (peptide 1)]
Km of the PKC reaction for the substrate MBP, peptide 50 µM (control 0.165 mg/ml) [1]: 0.39 mg/mL | Vmax of the PKC reaction with respect to the cofactor ATP, peptide 50 µM (control 3.81 pmol/min) [1]: 4.2 pmol/min | Vmax of the PKC reaction with respect to the substrate MBP, peptide 50 µM (control 2.25 pmol/min) [1]: 2.92 pmol/min

QKLCHQKK [BVR peptide Q288KLCHQKK295 (peptide 2)]
Km of the PKC reaction for the substrate MBP, peptide 50 µM (control 0.165 mg/ml) [1]: 0.12 mg/mL | Vmax of the PKC reaction with respect to the cofactor ATP, peptide 50 µM (control 3.81 pmol/min) [1]: 3.12 pmol/min | Vmax of the PKC reaction with respect to the substrate MBP, peptide 50 µM (control 2.25 pmol/min) [1]: 1.82 pmol/min | inhibition of PKC activity with MBP as substrate, peptide 50 µM [1]: > 75%

RKRCLRRL [PKC inhibitor peptide RKRCLRRL]
inhibition of PKC activity, peptide at the same concentration as BVR peptide 2 [1]: 90%

B1: Ser^44: hBVR SEQ. ID. No. 1 with Ser^44→Ala within one of the kinase motifs (protein, listed as Homo sapiens)
chain: MNAEPERKFGVVVVGVGRAGSVRMRDLRNPHPSSAFLNLIGFVARRELGSIDGVQQISLEDALSSQEVEVAYICSESSSHEDYIRQFLNAGKHVLVEYPMTLSLAAAQELWELAEQKGKVLHEEHVELLMEEFAFLKKEVVGKDLLKGSLLFTSDPLEEDRFGFPAFSGISRLTWLVSLFGELSLVSATLEERKEDQYMKMTVCLETEKKSPLSWIEEKGPGLKRNRYLSFHFKSGSLENVPNVGVNKNIFLKDQNIFVQKLLGQFSEKELAAEKKRILHCLGLAEEIQKYCCSRK
enzyme activity [2]: did not display loss of enzyme activity | Activity (nmol bilirubin/min/mg) pH 6.7 + NADH [3]: 7443 nmol bilirubin/min/mg | increase in activity at pH 6.7 with NADH ([3]; pH 6.7, NADH, versus wild type): 2.5 fold | Activity (nmol bilirubin/min/mg) pH 8.7 + NADPH [3]: 333 nmol bilirubin/min/mg | reduction in NADPH-dependent activity ([3]; pH 8.7, NADPH, versus wild type): 70-75%

B2: Lys^92/His^93: hBVR with Lys^92His^93→Ala-Ala within the oxidoreductase motif (protein, UniProt P53004 3-296, looked up, variant K92A H93A)
Biliverdin reductase A: AEPERKFGVVVVGVGRAGSVRMRDLRNPHPSSAFLNLIGFVSRRELGSIDGVQQISLEDALSSQEVEVAYICSESSSHEDYIRQFLNAGAAVLVEYPMTLSLAAAQELWELAEQKGKVLHEEHVELLMEEFAFLKKEVVGKDLLKGSLLFTAGPLEEERFGFPAFSGISRLTWLVSLFGELSLVSATLEERKEDQYMKMTVCLETEKKSPLSWIEEKGPGLKRNRYLSFHFKSGSLENVPNVGVNKNIFLKDQNIFVQKLLGQFSEKELAAEKKRILHCLGLAEEIQKYCCSRK
Activity (nmol bilirubin/min/mg) pH 6.7 + NADH [3]: 0 nmol bilirubin/min/mg | reductase activity relative to the control (wild type) ([3]; pH 6.7 with NADH): loss of enzyme activity | Activity (nmol bilirubin/min/mg) pH 8.7 + NADPH [3]: 0 nmol bilirubin/min/mg | reductase activity relative to the control (wild type) ([3]; pH 8.7 with NADPH): loss of enzyme activity

B3: Cys^281: hBVR with Cys^281→Ala within the zinc finger domain (protein, UniProt P53004 3-296, looked up, variant C281A)
Biliverdin reductase A: AEPERKFGVVVVGVGRAGSVRMRDLRNPHPSSAFLNLIGFVSRRELGSIDGVQQISLEDALSSQEVEVAYICSESSSHEDYIRQFLNAGKHVLVEYPMTLSLAAAQELWELAEQKGKVLHEEHVELLMEEFAFLKKEVVGKDLLKGSLLFTAGPLEEERFGFPAFSGISRLTWLVSLFGELSLVSATLEERKEDQYMKMTVCLETEKKSPLSWIEEKGPGLKRNRYLSFHFKSGSLENVPNVGVNKNIFLKDQNIFVQKLLGQFSEKELAAEKKRILHALGLAEEIQKYCCSRK
Activity % pH 6.7 + NADH [3]: 31% | Activity % pH 8.7 + NADPH [3]: 23%

B4: Cys^292^,^293: hBVR construct with Cys^292+Cys^293→Ala mutations (protein, UniProt P53004 3-296, looked up, variant C292A C293A)
Biliverdin reductase A: AEPERKFGVVVVGVGRAGSVRMRDLRNPHPSSAFLNLIGFVSRRELGSIDGVQQISLEDALSSQEVEVAYICSESSSHEDYIRQFLNAGKHVLVEYPMTLSLAAAQELWELAEQKGKVLHEEHVELLMEEFAFLKKEVVGKDLLKGSLLFTAGPLEEERFGFPAFSGISRLTWLVSLFGELSLVSATLEERKEDQYMKMTVCLETEKKSPLSWIEEKGPGLKRNRYLSFHFKSGSLENVPNVGVNKNIFLKDQNIFVQKLLGQFSEKELAAEKKRILHCLGLAEEIQKYAASRK
Activity % pH 6.7 + NADH [3]: 94% | Activity % pH 8.7 + NADPH [3]: 100%

B5: Cys^74,204^,^281,292,293: hBVR construct with all 5 Cys residues combined changed to Ala (protein, UniProt P53004 3-296, looked up, variant C74A C204A C281A C292A C293A)
Biliverdin reductase A: AEPERKFGVVVVGVGRAGSVRMRDLRNPHPSSAFLNLIGFVSRRELGSIDGVQQISLEDALSSQEVEVAYIASESSSHEDYIRQFLNAGKHVLVEYPMTLSLAAAQELWELAEQKGKVLHEEHVELLMEEFAFLKKEVVGKDLLKGSLLFTAGPLEEERFGFPAFSGISRLTWLVSLFGELSLVSATLEERKEDQYMKMTVALETEKKSPLSWIEEKGPGLKRNRYLSFHFKSGSLENVPNVGVNKNIFLKDQNIFVQKLLGQFSEKELAAEKKRILHALGLAEEIQKYAASRK
Activity % pH 6.7 + NADH [3]: 1% | Activity % pH 8.7 + NADPH [3]: 10%

B6: Cys^74: hBVR with Cys^74→Ala within a substrate binding domain (protein, UniProt P53004 3-296, looked up, variant C74A)
Biliverdin reductase A: AEPERKFGVVVVGVGRAGSVRMRDLRNPHPSSAFLNLIGFVSRRELGSIDGVQQISLEDALSSQEVEVAYIASESSSHEDYIRQFLNAGKHVLVEYPMTLSLAAAQELWELAEQKGKVLHEEHVELLMEEFAFLKKEVVGKDLLKGSLLFTAGPLEEERFGFPAFSGISRLTWLVSLFGELSLVSATLEERKEDQYMKMTVCLETEKKSPLSWIEEKGPGLKRNRYLSFHFKSGSLENVPNVGVNKNIFLKDQNIFVQKLLGQFSEKELAAEKKRILHCLGLAEEIQKYCCSRK
Activity % pH 6.7 + NADH [3]: 44% | Activity % pH 8.7 + NADPH [3]: 45%
